The target in test [1] is SaSir2 (Sir2 of Staphylococcus aureus), 6x His-tagged, expressed alone (Staphylococcus aureus). The test is described as follows: AUC.
The next test has as its target T1, SaSir2-HerA (Staphylococcus aureus, UniProt C1PH93).
T1 sequence (C1PH93 1-428): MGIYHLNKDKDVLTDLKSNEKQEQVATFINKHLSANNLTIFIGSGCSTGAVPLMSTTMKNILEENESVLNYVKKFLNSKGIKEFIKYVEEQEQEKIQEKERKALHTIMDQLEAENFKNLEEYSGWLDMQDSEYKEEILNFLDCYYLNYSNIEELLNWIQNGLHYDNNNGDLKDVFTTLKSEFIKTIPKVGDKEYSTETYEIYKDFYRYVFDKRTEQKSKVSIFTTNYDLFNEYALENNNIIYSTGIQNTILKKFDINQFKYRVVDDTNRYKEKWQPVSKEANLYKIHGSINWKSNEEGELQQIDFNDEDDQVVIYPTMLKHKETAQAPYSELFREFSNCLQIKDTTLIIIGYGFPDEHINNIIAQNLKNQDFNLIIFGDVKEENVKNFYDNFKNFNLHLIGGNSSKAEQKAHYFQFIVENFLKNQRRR
T1 sequence (C1PH94 1-562 partner): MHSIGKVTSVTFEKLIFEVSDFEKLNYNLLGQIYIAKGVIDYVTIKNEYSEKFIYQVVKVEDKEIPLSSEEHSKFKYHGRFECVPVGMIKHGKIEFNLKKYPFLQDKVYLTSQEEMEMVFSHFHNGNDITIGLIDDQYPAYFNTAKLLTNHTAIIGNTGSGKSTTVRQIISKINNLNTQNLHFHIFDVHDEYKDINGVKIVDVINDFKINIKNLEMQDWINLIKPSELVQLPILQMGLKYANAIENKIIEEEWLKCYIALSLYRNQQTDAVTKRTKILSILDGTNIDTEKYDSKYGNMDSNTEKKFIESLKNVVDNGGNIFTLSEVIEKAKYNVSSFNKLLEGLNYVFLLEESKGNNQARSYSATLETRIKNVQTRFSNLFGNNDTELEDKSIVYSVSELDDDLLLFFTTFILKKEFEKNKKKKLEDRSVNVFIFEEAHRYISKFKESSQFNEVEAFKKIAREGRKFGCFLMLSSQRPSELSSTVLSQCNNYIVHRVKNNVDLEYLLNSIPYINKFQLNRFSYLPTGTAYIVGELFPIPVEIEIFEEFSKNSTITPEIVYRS
The test is described as follows: biolayer interferometry, protein captured on Ni-NTA sensor. Format: binding. A general note: In BLI a coated tip is dipped into the sample, and binding shifts an interference pattern.

A word on the stoichiometry N: it is a count of units in the complex or per binding partner. In test [1], “SaSir2 (Sir2 of Staphylococcus aureus), 6x His-tagged, expressed alone (enzyme)” returned a stoichiometry N of 2.

One may read the Kd as a measure of binding affinity in units of concentration. A low value points to higher affinity. On SaSir2-HerA, `NC(=O)c1ccc[n+]([C@@H]2O[C@H](COP(=O)(O)OP(=O)(O)OC[C@H]3O[C@@H](n4cnc5c(N)ncnc54)[C@H](O)[C@@H]3O)[C@@H](O)[C@H]2O)c1` [NAD^+] returned a dissociation constant (Kd) of 4.39 µM.

The record behind these values is paper PMC11514289 (Nature Communications, 2024).
